Experimental data published in US20210032351A1 (XDCEXPLORER SHANGHAI, published 2021).
Blank lines part the entries; values can stand above or below the binder they belong to.

How the values were obtained:
[1] = target: T1, human EGFRvIII-hFc protein (human, UniProt P00533 25-645); experiment: ELISA, EGFRvIII-hFc coated; weak binding, maximum OD450 0.79 against 3.03 for wild type and 0.08 for hIgG
T1 construct: extracellular domain; also called immunogen A; hFc-tagged EGFRvIII protein; not shown: human IgG Fc fragment (hFc) of the pCpC vector
Description: The plate is incubated for 2 hours at 37° C., and then washed 3 times with the plate washing solution [PBS+0.01% (v/v) Tween20]. The plate is added with an HRP (horseradish peroxidase) labeled secondary antibody (purchased from Sigma), incubated at 37° C. for 2 hours, and then washed 3 times with the plate washing solution [PBS+0.01% (v/v) Tween20]. The plate is added with 100 μl of TMB substrate/well, incubated for 30 minutes at room temperature, and then added with 100 μl of stopping solution (1.0N HCl)/well. A450 nm value is read using an ELISA plate reader (SpectraMax 384plus, purchased from Molecular Device), and the results are shown in FIG. 11 and table 19.

[2] = target: T1, human EGFRvIII-hFc protein; experiment: ELISA, EGFRvIII-hFc coated
[3] = target: T2, human EGFRvIII protein on the cell surface (human, UniProt P00533 25-1210); experiment: FACS on CHOk1-EGFRvIII cells
T2 construct: whole, on cells; the cell line is named under assay; also called hEGFRvIII; U87MG-hEGFRvIII
Description: (§1) The desired cells are subjected to an expanded culture to 90% confluence in a T-75 cell culture flask; the medium is sucked out, and the cells are washed twice with a HBSS buffer (Hanks Balanced Salt Solution) (purchased from Invitrogen), and then treated with an enzyme-free cell dissociation solution (Versene solution: purchased from Life Technology) and collected. The cells are washed twice with the HBSS buffer and are counted, and then the cells are diluted with the HBSS buffer to 2×10⁶ cells/ml, added with 1% goat serum blocking solution, with the percentage being the mass percentage, and incubated on ice for 30 minutes, and then centrifugally washed twice with the HBSS buffer. The collected cells are suspended to 2×10⁶ cells/mL with an FACS buffer (HBSS+1% BSA, with the percentage being the mass percentage), added to a 96-well FACS reaction plate at 100 μL/well, then added with 100 μL/well of the purified EGFRvIII antibody (samples to be tested) obtained in example 2, and incubated on ice for 2 hours. The plate is centrifugally washed twice with the FACS buffer, added with 100 μL/well of a fluorescence (Alexa 488) labeled secondary antibody (purchased from Invitrogen), and then incubated on ice for 1 hour. The plate is centrifugally washed 3 times with the FACS buffer, added with 100 μL/well of a fixing solution [4% (v/v) paraformaldehyde] for suspending the cells, and centrifugally washed twice with the FACS buffer after 10 minutes. The cells are suspended in 100 μL of the FACS buffer, and the results are detected and analyzed by FACS (FACS Calibur, purchased from BD). Data analysis is performed by using the software (CellQuest) to obtain the mean fluorescence intensity (MFI) of the cells. Data is further analyzed by using the software (GraphPad Prism5) to perform data fitting and calculate EC50. […] A431 cells (human epidermal cell cancer cell lines) have a large amount of wild-type EGFR protein expressed on the surface thereof.

[4] = target: T3, human wild-type EGFR protein on the cell surface (human, UniProt P00533 25-1210); experiment: FACS on CHOk1-EGFR cells
T3 construct: whole, on cells; Endogenous on A431, HEB, U87MG cells and normal human primary hepatocytes; transfected on CHOk1-EGFR cells; The cell is named under assay; also called A431; HEB
Description: as §1, with “The” for “The desired cells are subjected to an expanded culture to 90% confluence in a T-75 cell culture flask; the medium is sucked out, and the cells are washed twice with a HBSS buffer (Hanks Balanced Salt Solution) (purchased from Invitrogen), and then treated with an enzyme-free cell dissociation solution (Versene solution: purchased from Life Technology) and collected. The”, “thereof. […] U87MG cells (human glioma cell lines) have a small amount of wild-type EGFR protein expressed on the surface thereof, while HEB cells (human glioma cell lines) have a high level of wild-type EGFR protein expression on the surface thereof.” for “thereof.”

[5] = target: T4, human EGFRvIII-hFc protein (human, UniProt P00533 25-645); experiment: ELISA, coated EGFRvIII-hFc, antibody 0.01 nM
T4 construct: extracellular domain; made in HEK293 cells, purified on protein A; also called immunogen A; hFc-tagged EGFRvIII protein; not shown: human IgG Fc fragment (hFc) of the pCpC vector
In short: (§2)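 Coat: EGFRvIII-hFc 1.0 μg/mL, 4° C o/n. Block: 1% BSA/PBS-Tween, 2 h RT. Ab 2 h 37° C; HRP 2° Ab 2 h 37° C. TMB 30 min, HCl stop, A450.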

[6] = target: T4, human EGFRvIII-hFc protein; experiment: ELISA, coated EGFRvIII-hFc, antibody 1 nM
In short: as §2

[7] = target: T4, human EGFRvIII-hFc protein; experiment: ELISA, coated EGFRvIII-hFc, antibody 0.001 nM
In short: as §2

[8] = target: T4, human EGFRvIII-hFc protein; experiment: ELISA, coated EGFRvIII-hFc, antibody 10 nM
In short: as §2

[9] = target: T4, human EGFRvIII-hFc protein; experiment: ELISA, coated EGFRvIII-hFc, antibody 0.1 nM
In short: as §2

[10] = target: T4, human EGFRvIII-hFc protein; experiment: ELISA, coated EGFRvIII-hFc, antibody 100 nM
In short: as §2

[11] = target: T5, human EGFR protein (wild-type), on cells (human, UniProt P00533 25-1210); experiment: FACS on A431 cells
T5 construct: whole, on cells; transfected on CHO-K1 cells; endogenous on the human cell lines; the cell is named under assay; also called wild-type EGFR; hEGFR
Description: The cells are washed twice with the HBSS buffer and are counted, and then the cells are diluted with the HBSS buffer to 2×10⁶ cells/ml, added with 1% goat serum blocking solution, with the percentage being the mass percentage, and incubated on ice for 30 minutes, and then centrifugally washed twice with the HBSS buffer. The collected cells are suspended to 2×10⁶ cells/mL with an FACS buffer (HBSS+1% BSA, with the percentage being the mass percentage), added to a 96-well FACS reaction plate at 100 μL/well, then added with 100 μL/well of the purified EGFRvIII antibody (samples to be tested) obtained in example 2, and incubated on ice for 2 hours. The plate is centrifugally washed twice with the FACS buffer, added with 100 μL/well of a fluorescence (Alexa 488) labeled secondary antibody (purchased from Invitrogen), and then incubated on ice for 1 hour. […] The cells are suspended in 100 μL of the FACS buffer, and the results are detected and analyzed by FACS (FACS Calibur, purchased from BD). Data analysis is performed by using the software (CellQuest) to obtain the mean fluorescence intensity (MFI) of the cells. Data is further analyzed by using the software (GraphPad Prism5) to perform data fitting and calculate EC50. […]

[12] = target: T4, human EGFRvIII-hFc protein; experiment: ELISA, plate coated with human EGFRvIII-hFc, HRP secondary antibody, absorbance at 450 nm
Description: The purified immunogen A (EGFRvIII-hFc) obtained in example 1 (for the preparation method, see step (I) in example 1) is diluted with PBS to a final concentration of 1.0 μg/mL, and then added to a 96-well ELISA plate at 100 μl/well. The plate is sealed with a plastic film and incubated at 4° C. overnight. The next day, the plate is washed twice with a plate washing solution [PBS+0.01% (v/v) Tween20], and added with a blocking solution [PBS+0.01% (v/v) Tween20+1% (w/w) BSA] for blocking 2 hours at room temperature. The blocking solution is discarded, and the purified EGFRvIII antibody obtained in example 2 is added at 100 μl/well. The plate is incubated for 2 hours at 37° C., and then washed 3 times with the plate washing solution [PBS+0.01% (v/v) Tween20]. The plate is added with an HRP (horseradish peroxidase) labeled secondary antibody (purchased from Sigma), incubated at 37° C. for 2 hours, and then washed 3 times with the plate washing solution [PBS+0.01% (v/v) Tween20]. The plate is added with 100 μl of TMB substrate/well, incubated for 30 minutes at room temperature, and then added with 100 μl of stopping solution (1.0N HCl)/well. A450 nm value is read using an ELISA plate reader (SpectraMax 384plus, purchased from Molecular Device), and the results are shown in FIG. 6 and table 10.

[13] = target: T4, human EGFRvIII-hFc protein; experiment: ELISA, coated EGFRvIII-hFc, antibody 0.0001 nM
In short: as §2

- EC50 [1]: 7.94 nM
- Maximum OD450 value [2]: 0.79 OD450
- EC50 [3]: 24 nM
- Maximum mean fluorescence intensity [3]: 52600 MFI
- Maximum mean fluorescence intensity [4]: 8970 MFI
B1: c75G7C6-4 (antibody, human IgG1, V domains shown)
VH: EVQLQQSGPELVKPGASVKIPCKASGYTFTDYNMDWVKQSHGKSLEWIGDINPNNGDTIYNQKFKGKATLTVDKSSSTAYMELRSLTSEDTAVYYCARGDYSGYYPVYYAMDYWGQGTSVTVSS
VL: ENVLTQSPAIMSASPGEKVTMTCRASSSVSSSYLHWYQQKSGASPKLWIFSTSNLAAGVPARFSGSGSGTSYSLTVSSVEAEDAATYYCQQYSGYPLTFGAGTKLELK
notes: Chimeric 75G7C6 with DG of heavy chain CDR3 mutated to SG; Human IgG1/kappa; also called mutant chimeric antibody DG/SG

- OD450 nm [5]: 0.35
- OD450 nm [6]: 3.18
- OD450 nm [7]: 0.17
- OD450 nm [8]: 3.14
- OD450 nm [9]: 1.68
- OD450 nm [10]: 3.36
- binding result [11]: no binding
- EC50 (read off the curve) [12]: ~0.02 nM
- OD450 nm [13]: 0.15
B2: Murine anti-7E5 (antibody, V domains shown)
VH: EIQLQQSGPELVKPGASVKVSCKASGYSFTDYNMYWVKQSHGKSLEWIGYVDPSNGGTNYNQKFKGKATLTVDKSSSTAFMHLNSLTSEDSAVYYCARGFFDYWGQGTTLTVSS
VL: DIVMTQSPSSLTVTAGEKVTMSCKSSQSLLNSGNQKNYLTWYQQKPGQPPKLLIYWASNRESGVPDRFTGSGSGKDFTLTISSVQAEDLAVYYCQNDYRYPVTFGAGTKLELK
notes: murine hybridoma antibody; also called 7E5-2A9; murine anti-7E5-2
